How the values were obtained:
[1] = target: aMLV envelope on pseudotyped virus (negative control) (aMLV); experiment: cell-based or functional assay
[2] = target: HIV-1 Env of isolate MGRM-C-026 (clade C pseudovirus) (HIV-1); experiment: cell-based or functional assay
[3] = target: HIV-1 Env of isolate MG RM-D-004 (clade D), on pseudovirus (HIV-1); experiment: cell-based or functional assay
[4] = target: HIV-1 Env of isolate MGRM-Chronic-B-010 (HIV-1); experiment: cell-based or functional assay
[5] = target: HIV-1 Env of pseudovirus 92WR020 (subtype A) (HIV-1); experiment: cell-based or functional assay
[6] = target: HIV-1 Env of isolate MG RM-D-020 (clade D), on pseudovirus (HIV-1); experiment: cell-based or functional assay
[7] = target: HIV-1 Env of isolate MG RM-D-014 (clade D), on pseudovirus (HIV-1); experiment: cell-based or functional assay
[8] = target: HIV-1 Env of isolate 92UG114 (clade D), on pseudovirus (HIV-1); experiment: cell-based or functional assay
[9] = target: HIV-1 Env of isolate MG RM-D-008 (clade D), on pseudovirus (HIV-1); experiment: cell-based or functional assay
[10] = target: HIV-1 Env of isolate MG RM-D-028 (clade D), on pseudovirus (HIV-1); experiment: cell-based or functional assay
[11] = target: HIV-1 Env of isolate MG RM-D-005 (clade D), on pseudovirus (HIV-1); experiment: cell-based or functional assay
[12] = target: HIV-1 Env of isolate MG RM-D-024 (clade D), on pseudovirus (HIV-1); experiment: cell-based or functional assay
[13] = target: HIV-1 Env of isolate MG RM-D-013 (clade D), on pseudovirus (HIV-1); experiment: cell-based or functional assay
[14] = target: HIV-1 92RW020 envelope glycoprotein (Env) on pseudovirus (HIV-1 isolate 92RW020 (clade A)); experiment: cell-based or functional assay
[15] = target: HIV-1 Env of pseudovirus 92WR009 (subtype A) (HIV-1); experiment: cell-based or functional assay
[16] = target: HIV-1 Env of pseudovirus MGRM-A-003 (subtype A) (HIV-1); experiment: cell-based or functional assay
[17] = target: HIV-1 Env of pseudovirus MGRM-A-007 (subtype A) (HIV-1); experiment: cell-based or functional assay
[18] = target: HIV-1 Env of isolate MGRM-Chronic-B-018 (HIV-1); experiment: cell-based or functional assay
[19] = target: HIV-1 Env of isolate MGRM-F1-006 (clade F), on pseudovirus (HIV-1); experiment: cell-based or functional assay
[20] = target: HIV-1 Env of isolate MGRM-Chronic-B-004 (HIV-1); experiment: cell-based or functional assay
[21] = target: HIV-1 Env of isolate 92UG046 (clade D), on pseudovirus (HIV-1); experiment: cell-based or functional assay
[22] = target: HIV-1 Env of isolate MGRM-F1-018 (clade F pseudovirus) (HIV-1); experiment: cell-based or functional assay
[23] = target: HIV-1 Env of pseudovirus MGRM-A-009 (subtype A) (HIV-1); experiment: cell-based or functional assay
[24] = target: HIV-1 Env of isolate MGRM-C-025 (clade C pseudovirus) (HIV-1); experiment: cell-based or functional assay
[25] = target: HIV-1 Env of isolate MGRM-Chronic-B-012 (HIV-1); experiment: cell-based or functional assay
[26] = target: HIV-1 Env of isolate MGRM-F1-020 (clade F pseudovirus) (HIV-1); experiment: cell-based or functional assay
[27] = target: HIV-1 Env of isolate MG RM-D-019 (clade D), on pseudovirus (HIV-1); experiment: cell-based or functional assay
[28] = target: HIV-1 Env of pseudovirus 92WR024 (subtype A) (HIV-1); experiment: cell-based or functional assay
[29] = target: HIV-1 Env of isolate MGRM-Chronic-B-023 (HIV-1); experiment: cell-based or functional assay
[30] = target: Endo H treated JR-FL gp120 (HIV-1); experiment: ELISA, antigen-coated wells
[31] = target: HIV-1 MGRM-D-001 envelope glycoprotein (Env) on pseudovirus (HIV-1); experiment: cell-based or functional assay
[32] = target: HIV-1 MGRM-AG-005 envelope glycoprotein (Env) on pseudovirus (HIV-1); experiment: cell-based or functional assay
[33] = target: HIV-1 MGRM-C-027 envelope glycoprotein (Env) on pseudovirus (HIV-1); experiment: cell-based or functional assay
[34] = target: HIV-1 MGRM-C-026 envelope glycoprotein (Env) on pseudovirus (HIV-1); experiment: cell-based or functional assay
[35] = target: HIV-1 MGRM-A-010 envelope glycoprotein (Env) on pseudovirus (HIV-1); experiment: cell-based or functional assay
[36] = target: HIV-1 APV6 envelope glycoprotein (Env) on pseudovirus (HIV-1); experiment: cell-based or functional assay
[37] = target: HIV-1 APV17 envelope glycoprotein (Env) on pseudovirus (HIV-1); experiment: cell-based or functional assay
[38] = target: HIV-1 Env of isolate MG RM-D-021 (clade D), on pseudovirus (HIV-1); experiment: cell-based or functional assay
[39] = target: HIV-1 Env of isolate MGRM-F1-004 (HIV-1); experiment: cell-based or functional assay

Sequence of 1443_C16 (PG16) (TCN-116) (antibody) (VH): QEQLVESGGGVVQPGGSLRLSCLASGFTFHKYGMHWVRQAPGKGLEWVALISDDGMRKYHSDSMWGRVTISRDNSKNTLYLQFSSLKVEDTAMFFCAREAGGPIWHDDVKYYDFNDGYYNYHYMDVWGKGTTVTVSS
Sequence of 1443_C16 (PG16) (TCN-116) (antibody) (VL): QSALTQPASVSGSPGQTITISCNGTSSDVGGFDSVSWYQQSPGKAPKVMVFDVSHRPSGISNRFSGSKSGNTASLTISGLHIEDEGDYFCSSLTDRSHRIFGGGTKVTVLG

1443_C16 (PG16) (TCN-116) (antibody)
Neutralizing Antibody Assay: IC50; Virus/Ab Incubation 1 hour [1]: > 50 µg/mL | Neutralizing Antibody Assay: IC50; Virus/Ab Incubation 18 hour [1]: > 50 µg/mL

1495_C14 (PGC14) (antibody)
Neutralizing Antibody Assay: IC50; Virus/Ab Incubation 1 hour [1]: > 50 µg/mL | Neutralizing Antibody Assay: IC50; Virus/Ab Incubation 18 hour [1]: > 50 µg/mL

1496_C09 (PG9) (TCN-109) (antibody)
IC50 (µg/mL), pseudovirus neutralization [2]: 0.06 µg/mL | IC50 (µg/mL), pseudovirus neutralization [3]: 0.06 µg/mL | IC50 (µg/mL), pseudovirus neutralization [4]: 0.004 µg/mL | IC50, pseudovirus neutralization [5]: 0.141 µg/mL | IC50 (µg/mL), pseudovirus neutralization [6]: 1.67 µg/mL | IC50 (µg/mL), pseudovirus neutralization [7]: 0.023 µg/mL | IC50 (µg/mL), pseudovirus neutralization [8]: 40.6 µg/mL | IC50 (µg/mL), pseudovirus neutralization [9]: 11.5 µg/mL | IC50 (µg/mL), pseudovirus neutralization [10]: 20.2 µg/mL | IC50 (µg/mL), pseudovirus neutralization [11]: 1.8 µg/mL | IC50 (µg/mL), pseudovirus neutralization [12]: 0.038 µg/mL | IC50 (µg/mL), pseudovirus neutralization [13]: 0.021 µg/mL | neutralization IC50 [14]: 0.161 µg/mL | neutralization IC80 [14]: 1.04 µg/mL | neutralization IC90 [14]: 3.4 µg/mL | IC50, pseudovirus neutralization [15]: 0.05 µg/mL | IC50, pseudovirus neutralization [16]: 1.94 µg/mL | IC50, pseudovirus neutralization [17]: 1.06 µg/mL | IC50 (µg/mL), pseudovirus neutralization [18]: 0.216 µg/mL | IC50 (µg/mL), pseudovirus neutralization [19]: 7.25 µg/mL | IC50 (µg/mL), pseudovirus neutralization [20]: 0.533 µg/mL | IC50 (µg/mL), pseudovirus neutralization [21]: 1.86 µg/mL | IC50 (µg/mL), pseudovirus neutralization [22]: 0.019 µg/mL | IC50, pseudovirus neutralization [23]: 0.023 µg/mL | IC50 (µg/mL), pseudovirus neutralization [24]: 0.148 µg/mL | IC50 (µg/mL), pseudovirus neutralization [25]: 0.2 µg/mL | IC50 (µg/mL), pseudovirus neutralization [26]: 6.4 µg/mL | IC50 (µg/mL), pseudovirus neutralization [27]: 0.038 µg/mL | IC50, pseudovirus neutralization [28]: 0.258 µg/mL | IC50 (µg/mL), pseudovirus neutralization [29]: 0.027 µg/mL

4838_L06 (PGT-121) (antibody)
EC50 [30]: > 10 µg/mL

4858_P08 (PGT-123) (antibody)
neutralization IC50 [31]: 0.215 µg/mL | neutralization IC80 [31]: 0.678 µg/mL | neutralization IC90 [31]: 1.31 µg/mL | neutralization IC95 [31]: 2.33 µg/mL | neutralization IC50 [32]: 0.104 µg/mL | neutralization IC80 [32]: 1.28 µg/mL | neutralization IC90 [32]: 6.38 µg/mL | neutralization IC95 [32]: > 10 µg/mL | neutralization IC50 [33]: 0.0169 µg/mL | neutralization IC80 [33]: 0.149 µg/mL | neutralization IC90 [33]: > 10 µg/mL | neutralization IC95 [33]: > 10 µg/mL | neutralization IC50 [34]: 0.0031 µg/mL | neutralization IC80 [34]: 0.0094 µg/mL | neutralization IC90 [34]: 0.0183 µg/mL | neutralization IC95 [34]: 0.0338 µg/mL | neutralization IC50 [35]: 0.492 µg/mL | neutralization IC80 [35]: 2.79 µg/mL | neutralization IC90 [35]: 6.44 µg/mL | neutralization IC95 [35]: > 10 µg/mL | neutralization IC50 [36]: 0.0328 µg/mL | neutralization IC80 [36]: 0.145 µg/mL | neutralization IC90 [36]: 0.339 µg/mL | neutralization IC95 [36]: 0.726 µg/mL | neutralization IC50 [37]: 0.18 µg/mL | neutralization IC80 [37]: 0.539 µg/mL | neutralization IC90 [37]: 1.01 µg/mL | neutralization IC95 [37]: 1.75 µg/mL

5141_B17 (PGT-126) (antibody)
IC50, pseudovirus neutralization [31]: 0.0639 µg/mL | IC80 (pseudovirus neutralization) [31]: 0.333 µg/mL | IC90 (pseudovirus neutralization) [31]: 0.832 µg/mL | IC95 (pseudovirus neutralization) [31]: 1.8 µg/mL | IC50, pseudovirus neutralization [32]: 1.35 µg/mL | IC80 (pseudovirus neutralization) [32]: > 10 µg/mL | IC90 (pseudovirus neutralization) [32]: > 10 µg/mL | IC95 (pseudovirus neutralization) [32]: > 10 µg/mL | IC50, pseudovirus neutralization [33]: 1.14 µg/mL | IC80 (pseudovirus neutralization) [33]: > 10 µg/mL | IC90 (pseudovirus neutralization) [33]: > 10 µg/mL | IC95 (pseudovirus neutralization) [33]: > 10 µg/mL | IC50, pseudovirus neutralization [34]: 0.0076 µg/mL | IC80 (pseudovirus neutralization) [34]: 0.0345 µg/mL | IC90 (pseudovirus neutralization) [34]: 0.0831 µg/mL | IC95 (pseudovirus neutralization) [34]: 0.185 µg/mL | IC50, pseudovirus neutralization [35]: 0.0033 µg/mL | IC80 (pseudovirus neutralization) [35]: 0.0137 µg/mL | IC90 (pseudovirus neutralization) [35]: 0.0316 µg/mL | IC95 (pseudovirus neutralization) [35]: 0.0687 µg/mL | IC50, pseudovirus neutralization [36]: 0.0249 µg/mL | IC80 (pseudovirus neutralization) [36]: 0.0681 µg/mL | IC90 (pseudovirus neutralization) [36]: 0.123 µg/mL | IC95 (pseudovirus neutralization) [36]: 0.213 µg/mL | IC50, pseudovirus neutralization [37]: 0.501 µg/mL | IC80 (pseudovirus neutralization) [37]: 4.43 µg/mL | IC90 (pseudovirus neutralization) [37]: > 10 µg/mL | IC95 (pseudovirus neutralization) [37]: > 10 µg/mL

PGV04 (antibody)
IC50 (µg/mL), pseudovirus neutralization [2]: 0.303 µg/mL | IC50 (µg/mL), pseudovirus neutralization [3]: 43.2 µg/mL | IC50 (µg/mL), pseudovirus neutralization [4]: 0.744 µg/mL | IC50, pseudovirus neutralization [5]: 0.055 µg/mL | IC50 (µg/mL), pseudovirus neutralization [6]: 0.097 µg/mL | IC50 (µg/mL), pseudovirus neutralization [7]: 0.194 µg/mL | IC50 (µg/mL), pseudovirus neutralization [8]: 0.461 µg/mL | IC50 (µg/mL), pseudovirus neutralization [9]: 3.56 µg/mL | IC50 (µg/mL), pseudovirus neutralization [10]: 1.01 µg/mL | IC50 (µg/mL), pseudovirus neutralization [11]: > 50 µg/mL | IC50 (µg/mL), pseudovirus neutralization [12]: > 50 µg/mL | IC50 (µg/mL), pseudovirus neutralization [38]: > 50 µg/mL | IC50 (µg/mL), pseudovirus neutralization [13]: 0.088 µg/mL | IC50, pseudovirus neutralization [15]: 0.108 µg/mL | IC50, pseudovirus neutralization [16]: 0.128 µg/mL | IC50, pseudovirus neutralization [17]: 7.21 µg/mL | IC50 (µg/mL), pseudovirus neutralization [18]: 0.164 µg/mL | IC50 (µg/mL), pseudovirus neutralization [19]: > 50 µg/mL | IC50 (µg/mL), pseudovirus neutralization [20]: 0.047 µg/mL | IC50 (µg/mL), pseudovirus neutralization [21]: 22.4 µg/mL | IC50 (µg/mL), pseudovirus neutralization [22]: 0.027 µg/mL | IC50, pseudovirus neutralization [23]: 0.033 µg/mL | IC50 (µg/mL), pseudovirus neutralization [24]: > 50 µg/mL | IC50 (µg/mL), pseudovirus neutralization [25]: > 50 µg/mL | IC50 (µg/mL), pseudovirus neutralization [26]: 5.99 µg/mL | IC50 (µg/mL), pseudovirus neutralization [27]: 0.35 µg/mL | IC50, pseudovirus neutralization [28]: 0.31 µg/mL | IC50 (µg/mL), pseudovirus neutralization [29]: 0.139 µg/mL

VRC01 (antibody)
IC50 [39]: 0.305 µg/mL

From patent US20250320281A1
